Data from patent publication US20240150797A1, “BIOCATALYTICAL PRODUCTION OF DIHYDROCHALCONES” (Symrise AG, priority 2021, published 2024).

Experiments:
Type in all cases: biochemical
Conditions in all cases: purified CHI in 50 mM PBS, 100 μM substrate, 25° C.
[1] = Specific activity of purified CHI, absorbance decrease at 384 nm, hesperetin chalcone
[2] = Specific activity of purified CHI, absorbance decrease at 384 nm, homoeriodictyol chalcone
[3] = Specific activity of purified CHI, absorbance decrease at 384 nm, naringenin chalcone
[4] = Specific activity of purified CHI, absorbance decrease at 384 nm, eriodictyol chalcone
[5] = Specific activity of purified CHI, absorbance decrease at 384 nm, 4-O-methyl butein
Protocol: E. coli BL21 (DE3) cells containing one of the pET28b plasmids from Table 2 or Table 3 were used to inoculate 1 L LB medium at OD of 0.1. Cells were incubated at 37° C., 250 rpm until the OD reached 0.4-0.6 and induced by supplementing with 0.1 mM IPTG. After protein expression at 28° C., 250 rpm for 16 h, the cells were harvested by centrifugation at 4,000×g for 15 min. The harvested cells were lysed with 0.5 mg/mL lysozyme (Sigma-Aldrich), 0.4 U/mL Benzonase (Sigma-Aldrich) and BugBuster (Merck) at room temperature for 0.5 h to obtain a crude cell extract. The crude extract was centrifuged at 10,000×g for 30 min to remove the pellet. Recombinant proteins were purified by Ni-affinity chromatography (GE Healthcare). The supernatant of the crude extract was loaded on the column with 20 mM imidazole. The column was washed by 5 column volumes of 30 mM imidazole with 20 mM PBS (pH 7.4) and 500 mM NaCl. The target proteins were eluted by 150 mM imidazole with 20 mM PBS (pH 7.4) and 500 mM NaCl. Buffer exchange with 50 mM PBS (pH 7.5) was achieved by ultrafiltration with Amicon Ultra-15 (Merck). The activity of the respective purified enzyme was determined by measuring the absorbance decrease at 384 nm in the reaction mix (CHI in 50 mM PBS with 100 μM of either naringenin chalcone, hesperetin chalcone, eriodictyol chalcone, homoeriodictyol chalcone or 4-O-methyl butein at 25° C.).

Row | Molecule | Specific activity, Hesperetin chalcone [1] | Specific activity, Homoeriodctiol chalcone [2] | Specific activity, Naringenin chalcone [3] | Specific activity, Eriodictyol chalcone [4] | Specific activity, 4-O-methyl butein [5]
1 | CHIera Mut1: Chalcone isomerase variant 1 from Eubacterium ramulus, genetically engineered (protein, listed as Eubacterium ramulus) MADFKFEPMRSLIYVDCVSEDYRPKLQRWIYKVHIPDSISKFEPYVTKYAFYPSFPIPPQGDRFGYARMQLTEHHWLVSELDPRLEINAIAETFPMDVLVWQGQIPAAAHTDAQIDSDGDAGRAAGKSNNAEGNPFIFAFLPMWWEKDLKGKGRTIEDGANYRFNMTIGFPEGVDKAEGEKWLFEKVVPILQAAPECTRVLASAVKKDINGCVMDWVLEIWFENQSGWYKVMVDDMKALEKPSWAQQDAFPFLKPYHNVCSAAVADYTPSNNLANYRGYITMR | 93.2 | 23.7 | 32.6 | 59.5 | 0.4
2 | CHIera Mut3: Chalcone isomerase variant 3 from Eubacterium ramulus, genetically engineered (protein, listed as Eubacterium ramulus) MADFKFEPMRSLIYVDCVSEDYRPKLQRWIYKVHIPDSISNFEPYVTKYAFYPSFPIPPQGDRFGYARMQLTEHHWLVSELDPRLEIKAIAETFPMDVLVWQGQIPAAAHTDAQIDSDGDAGRAAGKSNNAEGNPFIFAFLPMWWEKDLKGKGRTIEDGANYRFNMTIGFPEGVDKAEGEKWLFEKVVPILQAAPECTRVLASAVKKDINGCVMDWVLEIWFENQSGWYKVMVDDMKALEKPSWAQQDAFPFLKPYHNVCSAAVADYTPSNNLANYRGYITMR | 55.1 | 13.0 | 16.7 | 39.2 | 0.3
3 | CHIera Mut5: Chalcone isomerase variant 5 from Eubacterium ramulus, genetically engineered (protein, listed as Eubacterium ramulus) MADFKFEPMRSLIYVDCVSEDYRPKLQRWIYKVHIPDSISKFEPYVTKYAFYPSFPIPPQGDRFGYARMQLTEHHWLVSPLDPRLEINAIAETFPMDVLVWQGQIPAAAHTDAQIDSDGDAGRAAKKSNNAEGNPFIFAFLPMWWEKDLKGKGRTIEDGANYRFNMTIGFPEGVDKAEGEKWLFEKVVPILQAAPECTRVLASAVKKDINGCVMDWVLEIWFENQSGWYKVMVDDMKALEKPSWAQQDAFPFLKPYHNVCSAAVADYTPSNNLANYRGYITMR | 4.5 | 8.8 | 8.0 | 13.5 | 0.1
4 | CHIera Mut6: Chalcone isomerase variant 6 from Eubacterium ramulus, genetically engineered (protein, listed as Eubacterium ramulus) MADFKFEPMRSLIYVDCVSEDYRPKLQRWIYKVHIPDSISNFEPYVTKYAFYPSFPIPPQGDRFGYARMQLTEHHWLVSELDPRLEIRAIAETFPMDVLVWQGQIPAAAHTDAQIDSDGDAGDAARKSNNAEGNPFIFAFLPMWWEKDLKGKGRTIEDGANYRFNMTIGFPEGVDKAEGEKWLFEKVVPILQAAPECTRVLASAVKKDINGCVMDWVLEIWFENQSGWYKVMVDDMKALEKPSWAQQDAFPFLKPYHNVCSAAVADYTPSNNLANYRGYITMR | 30.3 | 20.0 | 17.1 | 52.4 | 0.4
